Source: patent publication US20090191181

Key:
[1] = target: T1, RB1 double mutant K814A/K824A
T1 chain: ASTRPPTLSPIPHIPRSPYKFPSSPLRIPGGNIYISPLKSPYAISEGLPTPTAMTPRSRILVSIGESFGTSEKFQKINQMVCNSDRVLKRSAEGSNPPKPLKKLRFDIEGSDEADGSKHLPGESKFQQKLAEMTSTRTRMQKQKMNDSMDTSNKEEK

[2] = target: T2, Recombinant C-terminal region of RB1 (codons 769-921)
T2 chain: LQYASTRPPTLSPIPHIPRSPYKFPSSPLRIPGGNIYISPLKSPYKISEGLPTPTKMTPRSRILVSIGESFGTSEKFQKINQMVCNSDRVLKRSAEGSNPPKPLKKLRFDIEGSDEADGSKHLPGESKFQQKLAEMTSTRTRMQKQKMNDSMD

[3] = target: T3, RB1 substrate domain mutant K889A
T3 chain: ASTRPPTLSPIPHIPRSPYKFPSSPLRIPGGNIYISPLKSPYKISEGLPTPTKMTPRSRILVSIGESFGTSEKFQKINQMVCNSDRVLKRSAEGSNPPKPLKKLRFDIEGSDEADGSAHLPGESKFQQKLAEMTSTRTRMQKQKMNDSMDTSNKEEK

[4] = target: T4, RB1 substrate domain mutant K824A
T4 chain: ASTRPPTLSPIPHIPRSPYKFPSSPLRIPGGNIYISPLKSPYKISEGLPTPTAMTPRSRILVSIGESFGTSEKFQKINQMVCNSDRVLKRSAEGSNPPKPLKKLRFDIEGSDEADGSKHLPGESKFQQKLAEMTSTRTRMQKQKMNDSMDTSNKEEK

[5] = target: T5, RB1 substrate domain mutant K896A
T5 chain: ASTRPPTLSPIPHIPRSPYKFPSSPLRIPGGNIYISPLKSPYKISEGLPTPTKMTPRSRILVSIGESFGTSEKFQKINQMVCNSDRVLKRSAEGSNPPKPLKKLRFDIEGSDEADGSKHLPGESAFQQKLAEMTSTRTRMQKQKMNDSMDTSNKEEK

[6] = target: T6, RB1 double mutant K791A/K824A
T6 chain: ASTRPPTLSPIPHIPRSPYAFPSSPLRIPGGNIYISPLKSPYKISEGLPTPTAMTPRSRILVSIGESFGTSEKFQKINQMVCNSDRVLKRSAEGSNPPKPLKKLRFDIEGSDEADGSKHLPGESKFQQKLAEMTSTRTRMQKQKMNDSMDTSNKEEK

RB1 mutant K791A = target: T7, RB1 mutant K791A
T7 chain: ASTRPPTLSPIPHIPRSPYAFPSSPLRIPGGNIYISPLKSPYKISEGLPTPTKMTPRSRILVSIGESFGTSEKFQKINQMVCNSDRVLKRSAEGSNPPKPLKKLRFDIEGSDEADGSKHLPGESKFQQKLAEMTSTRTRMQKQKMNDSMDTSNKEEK

RB1 mutant K814A = target: T8, RB1 mutant K814A
T8 chain: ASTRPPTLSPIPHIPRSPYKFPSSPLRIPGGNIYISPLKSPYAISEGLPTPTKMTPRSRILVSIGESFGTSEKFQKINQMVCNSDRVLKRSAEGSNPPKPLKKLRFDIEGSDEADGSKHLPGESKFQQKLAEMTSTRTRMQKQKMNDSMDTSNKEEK

[7] = target: T9, full-length recombinant RB protein (3108, QED Bioscience)
T9 chain: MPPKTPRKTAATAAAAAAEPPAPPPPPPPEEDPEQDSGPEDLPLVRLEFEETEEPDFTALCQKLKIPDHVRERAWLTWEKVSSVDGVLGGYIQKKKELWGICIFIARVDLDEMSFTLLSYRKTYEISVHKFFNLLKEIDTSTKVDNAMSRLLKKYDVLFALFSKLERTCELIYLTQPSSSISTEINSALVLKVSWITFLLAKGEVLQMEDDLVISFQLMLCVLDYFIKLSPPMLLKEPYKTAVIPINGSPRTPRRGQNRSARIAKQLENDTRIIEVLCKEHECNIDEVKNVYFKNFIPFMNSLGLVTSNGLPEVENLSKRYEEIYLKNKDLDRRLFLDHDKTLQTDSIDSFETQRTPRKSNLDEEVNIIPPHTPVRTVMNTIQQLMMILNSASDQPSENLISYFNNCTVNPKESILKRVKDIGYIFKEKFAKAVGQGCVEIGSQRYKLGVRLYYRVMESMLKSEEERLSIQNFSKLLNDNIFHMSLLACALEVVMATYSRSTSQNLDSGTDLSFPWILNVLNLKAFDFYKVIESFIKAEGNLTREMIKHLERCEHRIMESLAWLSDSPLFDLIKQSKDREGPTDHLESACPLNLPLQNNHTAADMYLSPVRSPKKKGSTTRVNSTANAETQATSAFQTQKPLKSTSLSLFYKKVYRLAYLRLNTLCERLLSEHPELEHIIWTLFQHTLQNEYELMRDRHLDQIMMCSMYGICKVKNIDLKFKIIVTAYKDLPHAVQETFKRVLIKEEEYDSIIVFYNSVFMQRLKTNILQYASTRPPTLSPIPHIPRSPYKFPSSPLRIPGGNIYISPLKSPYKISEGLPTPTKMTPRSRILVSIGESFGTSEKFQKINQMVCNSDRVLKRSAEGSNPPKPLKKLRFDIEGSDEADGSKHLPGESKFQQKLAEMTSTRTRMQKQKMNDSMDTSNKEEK

[8] = target: Recombinant full-length GST-p53 (wild-type p53), P04637
Recombinant full-length GST-p53 (wild-type p53), P04637, sequence (P04637 whole entry, looked up): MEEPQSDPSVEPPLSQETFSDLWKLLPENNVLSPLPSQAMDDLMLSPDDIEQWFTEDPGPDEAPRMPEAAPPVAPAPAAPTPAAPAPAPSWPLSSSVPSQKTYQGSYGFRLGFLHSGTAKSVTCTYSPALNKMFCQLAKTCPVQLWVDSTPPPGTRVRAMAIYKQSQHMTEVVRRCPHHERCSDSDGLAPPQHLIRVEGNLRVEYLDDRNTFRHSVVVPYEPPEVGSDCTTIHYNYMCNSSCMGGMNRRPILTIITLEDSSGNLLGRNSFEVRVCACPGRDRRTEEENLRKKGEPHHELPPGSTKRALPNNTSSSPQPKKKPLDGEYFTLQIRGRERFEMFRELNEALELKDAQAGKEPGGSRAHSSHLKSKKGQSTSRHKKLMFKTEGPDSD

Protein | methylation by SMYD3 (fluorogram, liquid scintillation counter) [1] | incorporation of 3H-labeled methyl donor (liquid scintillation counter) [2] | methylation by SMYD3 (autoradiography, liquid scintillation counter) [3] | methylation by SMYD3 (autoradiography, liquid scintillation counter) [4] | methylation by SMYD3 (autoradiography, liquid scintillation counter) [5] | methylation by SMYD3 (fluorogram, liquid scintillation counter) [6] | methylation by SMYD3 (fluorogram, liquid scintillation counter) (RB1 mutant K791A) | methylation by SMYD3 (fluorogram, liquid scintillation counter) (RB1 mutant K814A) | methyltransferase (MTase) activity (recombinant histone H3) | methylation of substrate (in vitro MTase assay with 3H-labeled SAM, PAGE and autoradiography) [2] | methylation of substrate (in vitro MTase assay) [7] | methylation of substrate (in vitro MTase assay with 3H-labeled SAM, PAGE and autoradiography) [8] | methylation of substrate (in vitro MTase assay with 3H-labeled SAM, PAGE and autoradiography) (recombinant histone H3)
Recombinant SMYD3 protein (prepared in Sf9 cells, Baculovirus system) (protein) MEPLKVEKFATANRGNGLRAVTPLRPGELLFRSDPLAYTVCKGSRGVVCDRCLLGKEKLMRCSQCRVAKYCSAKCQKKAWPDHKRECKCLKSCKPRYPPDSVRLLGRVVFKLMDGAPSESEKLYSFYDLESNINKLTEDKKEGLRQLVMTFQHFMREEIQDASQLPPAFDLFEAFAKVICNSFTICNAEMQEVGVGLYPSISLLNHSCDPNCSIVFNGPHLLLRAVRDIEVGEELTICYLDMLMTSEERRKQLRDQYCFECDCFRCQTQDKDADMLTGDEQVWKEVQESLKKIEELKAHWKWEQVLAMCQAIISSNSERLPDINIYQLKVLDCAMDACINLGLLEEALFYGTRTMEPYRIFFPGSHPVRGVQVMKVGKLQLHQGMFPQAMKNLRLAFDIMRVTHGREHSLIEDLILLLEECDANIRAS | showed equivalent levels of methylation to the K824A protein | four to six fold higher amount of 3H-labeled methyl donor in the presence of SMYD3 than the absence of SMYD3 | the K889A and K896A mutants were methylated at similar levels by SMYD3 | methylation of K824A was significantly decreased | the K889A and K896A mutants were methylated at similar levels by SMYD3 | showed equivalent levels of methylation to the K824A protein | K791A and K814A, showed similar levels of methylation to wild type-RB1 | K791A and K814A, showed similar levels of methylation to wild type-RB1 | a dose-dependent increase of MTase activity on both substrates | – | – | – | –
Flag-tagged wild-type SMYD3 immunoprecipitated from 293T cells (p3XFLAG-CMV-SMYD3) (protein) MEPLKVEKFATANRGNGLRAVTPLRPGELLFRSDPLAYTVCKGSRGVVCDRCLLGKEKLMRCSQCRVAKYCSAKCQKKAWPDHKRECKCLKSCKPRYPPDSVRLLGRVVFKLMDGAPSESEKLYSFYDLESNINKLTEDKKEGLRQLVMTFQHFMREEIQDASQLPPAFDLFEAFAKVICNSFTICNAEMQEVGVGLYPSISLLNHSCDPNCSIVFNGPHLLLRAVRDIEVGEELTICYLDMLMTSEERRKQLRDQYCFECDCFRCQTQDKDADMLTGDEQVWKEVQESLKKIEELKAHWKWEQVLAMCQAIISSNSERLPDINIYQLKVLDCAMDACINLGLLEEALFYGTRTMEPYRIFFPGSHPVRGVQVMKVGKLQLHQGMFPQAMKNLRLAFDIMRVTHGREHSLIEDLILLLEECDANIRAS | – | – | – | – | – | – | – | – | – | bands corresponding to methylated RB1 were also detected | SMYD3 methylated full length of RB1 | no bands corresponding to methylated p53 were detected | bands corresponding methylated histone H3
